Laboratory results taken from patent publication US20240383985A1 (published 2024).
Read-outs that look alike come from different tables or passages of the source.

Tests used:
[1] = molecular target: T1, CD33 naturally expressed on HL60 cells (human, UniProt P20138 18-364); test: FACS
[2] = molecular target: T1, CD33 naturally expressed on HL60 cells; test: FACS; remark: listed apart in the source
[3] = molecular target: CD38 naturally expressed on Daudi cells (human, UniProt P28907 1-300); test: FACS; FIG. 24

T1 sequence (P20138 18-364): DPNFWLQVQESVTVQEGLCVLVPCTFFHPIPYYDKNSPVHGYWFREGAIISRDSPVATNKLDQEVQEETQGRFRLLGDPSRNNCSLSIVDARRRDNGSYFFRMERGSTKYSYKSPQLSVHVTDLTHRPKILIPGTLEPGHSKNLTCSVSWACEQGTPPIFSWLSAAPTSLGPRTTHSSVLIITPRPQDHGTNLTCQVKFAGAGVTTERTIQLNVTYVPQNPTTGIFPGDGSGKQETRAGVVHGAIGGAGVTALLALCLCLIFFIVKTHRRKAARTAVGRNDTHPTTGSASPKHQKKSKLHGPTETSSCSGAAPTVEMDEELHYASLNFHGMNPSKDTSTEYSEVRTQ

EC50 [1] [nM] | EC50 [2] [nM] | EC50 [3] [nM] | Binder
3.08 | 4.51 | – | CD33/CD16A/IL-15 trifunctional fusion protein QP42914285 (FC with L234A/L235A mutation for eliminating function) (bispecific antibody) light: SYVLTQPSSVSVAPGQTATISCGGHNIGSKNVHWYQQRPGQSPVLVIYQDNKRPSGIPERFSGSNSGNTATLTISGTQAMDEADYYCQVWDNYSVLFGGGTKLTVLRTVAAPSVFIFPPSDEQLKSGTASVVCLLNNFYPREAKVQWKVDNALQSGNSQESVTEQDSKDSTYSLSSTLTLSKADYEKHKVYACEVTHQGLSSPVTKSFNRGEC heavy: QVQLVQSGAEVKKPGESLKVSCKASGYTFTSYYMHWVRQAPGQGLEWMGIINPSGGSTSYAQKFQGRVTMTRDTSTSTVYMELSSLRSEDTAVYYCARGSAYYYDFADYWGQGTLVTVSSASTKGPSVFPLAPSSKSTSGGTAALGCLVKDYFPEPVTVSWNSGALTSGVHTFPAVLQSSGLYSLSSVVTVPSSSLGTQTYICNVNHKPSNTKVDKKVEPKSCDKTHTCPPCPAPEAAGGPSVFLFPPKPKDTLMISRTPEVTCVVVDVSHEDPEVKFNWYVDGVEVHNAKTKPREEQYNSTYRVVSVLTVLHQDWLNGKEYKCKVSNKALPAPIEKTISKAKGQPREPQVYTLPPSREEMTKNQVSLSCAVKGFYPSDIAVEWESNGQPENNYKTTPPVLDSDGSFFLVSKLTVDKSRWQQGNVFSCSVMHEALHNRYTQKSLSLSPGKGGSHHHHHH chain 1: not shown chain 2: not shown
– | 1.97 | – | QP42884285 (antibody) chain 1: DIVMTQSPDSLTVSLGERTTINCKSSQSVLDSSTNKNSLAWYQQKPGQPPKLLLSWASTRESGIPDRFSGSGSGTDFTLTIDSPQPEDSATYYCQQSAHFPITFGQGTRLEIKTVAAPSVFIFPPSYVLTQPSSVSVAPGQTATISCGGHNIGSKNVHWYQQRPGQSPVLVIYQDNKRPSGIPERFSGSNSGNTATLTISGTQAMDEADYYCQVWDNYSVLFGGGTKLTVLRTVAAPSVFIFPPSDEQLKSGTASVVCLLNNFYPREAKVQWKVDNALQSGNSQESVTEQDSKDSTYSLSSTLTLSKADYEKHKVYACEVTHQGLSSPVTKSFNRGEC chain 2: QVQLVQSGAEVKKPGESVKVSCKASGYTFTNYGMNWVKQAPGQGLEWMGWINTYTGEPTYADKFQGRVTMTTDTSTSTAYMEIRNLGGDDTAVYYCARWSWSDGYYVYFDYWGQGTSVTVSSASTKGPQVQLVQSGAEVKKPGESLKVSCKASGYTFTSYYMHWVRQAPGQGLEWMGIINPSGGSTSYAQKFQGRVTMTRDTSTSTVYMELSSLRSEDTAVYYCARGSAYYYDFADYWGQGTLVTVSSASTKGPSVFPLAPSSKSTSGGTAALGCLVKDYFPEPVTVSWNSGALTSGVHTFPAVLQSSGLYSLSSVVTVPSSSLGTQTYICNVNHKPSNTKVDKKVEPKSCDKTHTCPPCPAPEAAGGPSVFLFPPKPKDTLMISRTPEVTCVVVDVSHEDPEVKFNWYVDGVEVHNAKTKPREEQYNSTYRVVSVLTVLHQDWLNGKEYKCKVSNKALPAPIEKTISKAKGQPREPQVYTLPPSREEMTKNQVSLSCAVKGFYPSDIAVEWESNGQPENNYKTTPPVLDSDGSFFLVSKLTVDKSRWQQGNVFSCSVMHEALHNRYTQKSLSLSPGKGGSHHHHHH chain 3: not shown chain 4: not shown
13.4 | – | – | CD33/CD16A/IL-15 trifunctional fusion protein QP43394340 (FC with L234A/L235A mutation for eliminating function) (bispecific antibody) chain 1: not shown chain 2: not shown light: DIVMTQSPDSLTVSLGERTTINCKSSQSVLDSSTNKNSLAWYQQKPGQPPKLLLSWASTRESGIPDRFSGSGSGTDFTLTIDSPQPEDSATYYCQQSAHFPITFGQGTRLEIKRTVAAPSVFIFPPSDEQLKSGTASVVCLLNNFYPREAKVQWKVDNALQSGNSQESVTEQDSKDSTYSLSSTLTLSKADYEKHKVYACEVTHQGLSSPVTKSFNRGEC heavy: QVQLVQSGAEVKKPGESVKVSCKASGYTFTNYGMNWVKQAPGQGLEWMGWINTYTGEPTYADKFQGRVTMTTDTSTSTAYMEIRNLGGDDTAVYYCARWSWSDGYYVYFDYWGQGTSVTVSSASTKGPSVFPLAPSSKSTSGGTAALGCLVKDYFPEPVTVSWNSGALTSGVHTFPAVLQSSGLYSLSSVVTVPSSSLGTQTYICNVNHKPSNTKVDKKVEPKSCDKTHTCPPCPAPEAAGGPSVFLFPPKPKDTLMISRTPEVTCVVVDVSHEDPEVKFNWYVDGVEVHNAKTKPREEQYNSTYRVVSVLTVLHQDWLNGKEYKCKVSNKALPAPIEKTISKAKGQPREPQVYTLPPSREEMTKNQVSLSCAVKGFYPSDIAVEWESNGQPENNYKTTPPVLDSDGSFFLVSKLTVDKSRWQQGNVFSCSVMHEALHNRYTQKSLSLSPGK
– | 11.3 | – | QP42664406 (antibody) chain 1: DIVMTQSPDSLTVSLGERTTINCKSSQSVLDSSTNKNSLAWYQQKPGQPPKLLLSWASTRESGIPDRFSGSGSGTDFTLTIDSPQPEDSATYYCQQSAHFPITFGQGTRLEIKRTVAAPSVFIFPPSDEQLKSGTASVVCLLNNFYPREAKVQWKVDNALQSGNSQESVTEQDSKDSTYSLSSTLTLSKADYEKHKVYACEVTHQGLSSPVTKSFNRGEC chain 2: QVQLVQSGAEVKKPGESVKVSCKASGYTFTNYGMNWVKQAPGQGLEWMGWINTYTGEPTYADKFQGRVTMTTDTSTSTAYMEIRNLGGDDTAVYYCARWSWSDGYYVYFDYWGQGTSVTVSSASTKGPSVFPLAPSSKSTSGGTAALGCLVKDYFPEPVTVSWNSGALTSGVHTFPAVLQSSGLYSLSSVVTVPSSSLGTQTYICNVNHKPSNTKVDKKVEPKSCDKTHTCPPCPAPEAAGGPSVFLFPPKPKDTLMISRTPEVTCVVVDVSHEDPEVKFNWYVDGVEVHNAKTKPREEQYNSTYRVVSVLTVLHQDWLNGKEYKCKVSNKALPAPIEKTISKAKGQPREPQVYTLPPSREEMTKNQVSLSCAVKGFYPSDIAVEWESNGQPENNYKTTPPVLDSDGSFFLVSKLTVDKSRWQQGNVFSCSVMHEALHNRYTQKSLSLSPGKGGSHHHHHH chain 3: not shown chain 4: not shown
9.63 | – | – | CD33/CD16A bispecific antibody QP4115777778 (FC wild-type) (bispecific antibody) not shown heavy: QVQLVQSGAEVKKPGESVKVSCKASGYTFTNYGMNWVKQAPGQGLEWMGWINTYTGEPTYADKFQGRVTMTTDTSTSTAYMEIRNLGGDDTAVYYCARWSWSDGYYVYFDYWGQGTSVTVSSASTKGPSVFPLAPSSKSTSGGTAALGCLVKDYFPEPVTVSWNSGALTSGVHTFPAVLQSSGLYSLSSVVTVPSSSLGTQTYICNVNHKPSNTKVDKKVEPKSCDKTHTCPPCPAPELLGGPSVFLFPPKPKDTLMISRTPEVTCVVVDVSHEDPEVKFNWYVDGVEVHNAKTKPREEQYNSTYRVVSVLTVLHQDWLNGKEYKCKVSNKALPAPIEKTISKAKGQPREPQVYTLPPSREEMTKNQVSLSCAVKGFYPSDIAVEWESNGQPENNYKTTPPVLDSDGSFFLVSKLTVDKSRWQQGNVFSCSVMHEALHNRYTQKSLSLSPGKGGSHHHHHH light: DIVMTQSPDSLTVSLGERTTINCKSSQSVLDSSTNKNSLAWYQQKPGQPPKLLLSWASTRESGIPDRFSGSGSGTDFTLTIDSPQPEDSATYYCQQSAHFPITFGQGTRLEIKRTVAAPSVFIFPPSDEQLKSGTASVVCLLNNFYPREAKVQWKVDNALQSGNSQESVTEQDSKDSTYSLSSTLTLSKADYEKHKVYACEVTHQGLSSPVTKSFNRGEC
8.08 | – | – | CD33/CD16A/IL-15 trifunctional fusion protein QP743745 (FC wild-type) (bispecific antibody) chain 1: not shown chain 2: not shown light: DIVMTQSPDSLTVSLGERTTINCKSSQSVLDSSTNKNSLAWYQQKPGQPPKLLLSWASTRESGIPDRFSGSGSGTDFTLTIDSPQPEDSATYYCQQSAHFPITFGQGTRLEIKRTVAAPSVFIFPPSDEQLKSGTASVVCLLNNFYPREAKVQWKVDNALQSGNSQESVTEQDSKDSTYSLSSTLTLSKADYEKHKVYACEVTHQGLSSPVTKSFNRGEC heavy: QVQLVQSGAEVKKPGESVKVSCKASGYTFTNYGMNWVKQAPGQGLEWMGWINTYTGEPTYADKFQGRVTMTTDTSTSTAYMEIRNLGGDDTAVYYCARWSWSDGYYVYFDYWGQGTSVTVSSASTKGPSVFPLAPSSKSTSGGTAALGCLVKDYFPEPVTVSWNSGALTSGVHTFPAVLQSSGLYSLSSVVTVPSSSLGTQTYICNVNHKPSNTKVDKKVEPKSCDKTHTCPPCPAPELLGGPSVFLFPPKPKDTLMISRTPEVTCVVVDVSHEDPEVKFNWYVDGVEVHNAKTKPREEQYNSTYRVVSVLTVLHQDWLNGKEYKCKVSNKALPAPIEKTISKAKGQPREPQVYTLPPSREEMTKNQVSLSCAVKGFYPSDIAVEWESNGQPENNYKTTPPVLDSDGSFFLVSKLTVDKSRWQQGNVFSCSVMHEALHNRYTQKSLSLSPGK
– | – | 18.4 | QP34483449 (antibody, V domains shown) VH: EVQLVESGGGLVQPGGSLRLSCAASGFDFSRYWMSWVRQAPGKGLEWIGEINPDSSTINYAPSLKDKFIISRDNAKNSLYLQMNSLRAEDTAVYYCARPDGNYWYFDVWGQGTLVTVSS VL: MDMRVPAQLLGLLLLWFPGSRCDIQMTQSPSSLSASVGDRVTITCKASQDVGIAVAWYQQKPGKVPKLLIYWASTRHTGVPDRFSGSGSGTDFTLTISSLQPEDVATYYCQQYSSYPYTFGQGTKVEIKR
– | 2.31 | – | QP42824285 (antibody) chain 1: MEFGLSWLFLVAILKGVQCQVQLVQSGAEVKKPGESVKVSCKASGYTFTNYGMNWVKQAPGQGLEWMGWINTYTGEPTYADKFQGRVTMTTDTSTSTAYMEIRNLGGDDTAVYYCARWSWSDGYYVYFDYWGQGTSVTVSSGGGSGGGGSYVLTQPSSVSVAPGQTATISCGGHNIGSKNVHWYQQRPGQSPVLVIYQDNKRPSGIPERFSGSNSGNTATLTISGTQAMDEADYYCQVWDNYSVLFGGGTKLTVLGGGGSGGGGSGGGGSRTVAAPSVFIFPPSDEQLKSGTASVVCLLNNFYPREAKVQWKVDNALQSGNSQESVTEQDSKDSTYSLSSTLTLSKADYEKHKVYACEVTHQGLSSPVTKSFNRGEC chain 2: MEFGLSWLFLVAILKGVQCQVQLVQSGAEVKKPGESLKVSCKASGYTFTSYYMHWVRQAPGQGLEWMGIINPSGGSTSYAQKFQGRVTMTRDTSTSTVYMELSSLRSEDTAVYYCARGSAYYYDFADYWGQGTLVTVSSGGGSGGGGDIVMTQSPDSLTVSLGERTTINCKSSQSVLDSSTNKNSLAWYQQKPGQPPKLLLSWASTRESGIPDRFSGSGSGTDFTLTIDSPQPEDSATYYCQQSAHFPITFGQGTRLEIKGGGGSGGGGSGGGGSASTKGPSVFPLAPSSKSTSGGTAALGCLVKDYFPEPVTVSWNSGALTSGVHTFPAVLQSSGLYSLSSVVTVPSSSLGTQTYICNVNHKPSNTKVDKKVEPKSCDKTHTCPPCPAPEAAGGPSVFLFPPKPKDTLMISRTPEVTCVVVDVSHEDPEVKFNWYVDGVEVHNAKTKPREEQYNSTYRVVSVLTVLHQDWLNGKEYKCKVSNKALPAPIEKTISKAKGQPREPQVYTLPPSREEMTKNQVSLSCAVKGFYPSDIAVEWESNGQPENNYKTTPPVLDSDGSFFLVSKLTVDKSRWQQGNVFSCSVMHEALHNRYTQKSLSLSPGKGGSHHHHHH chain 3: not shown chain 4: not shown
2.89 | 3.31 | – | CD33 antibody IgG1 wt subtype QP41154116 (antibody, V domains shown) VH: QVQLVQSGAEVKKPGESVKVSCKASGYTFTNYGMNWVKQAPGQGLEWMGWINTYTGEPTYADKFQGRVTMTTDTSTSTAYMEIRNLGGDDTAVYYCARWSWSDGYYVYFDYWGQGTSVTVSS VL: DIVMTQSPDSLTVSLGERTTINCKSSQSVLDSSTNKNSLAWYQQKPGQPPKLLLSWASTRESGIPDRFSGSGSGTDFTLTIDSPQPEDSATYYCQQSAHFPITFGQGTRLEIKR
